This note sets out measurements from US20240190960A1 (Chugai, published 2024).

In this experiment the target is T1, Biotinylated human CD3εδ heterodimer (Fc-fused human CD3ε / Fc-fused human CD3δ) (human, biotin on the Avi tag (BirA)).
T1 chain 1: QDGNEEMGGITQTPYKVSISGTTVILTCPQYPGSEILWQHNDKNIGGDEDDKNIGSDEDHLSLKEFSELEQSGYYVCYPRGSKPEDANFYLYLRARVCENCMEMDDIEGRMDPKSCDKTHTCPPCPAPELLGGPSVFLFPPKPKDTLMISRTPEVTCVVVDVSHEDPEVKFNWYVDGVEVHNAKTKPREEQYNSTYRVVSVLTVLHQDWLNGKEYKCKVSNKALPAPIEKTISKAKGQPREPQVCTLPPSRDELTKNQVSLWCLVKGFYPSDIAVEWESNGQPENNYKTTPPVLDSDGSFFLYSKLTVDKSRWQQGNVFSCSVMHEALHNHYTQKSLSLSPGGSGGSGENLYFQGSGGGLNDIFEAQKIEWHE
T1 chain 2: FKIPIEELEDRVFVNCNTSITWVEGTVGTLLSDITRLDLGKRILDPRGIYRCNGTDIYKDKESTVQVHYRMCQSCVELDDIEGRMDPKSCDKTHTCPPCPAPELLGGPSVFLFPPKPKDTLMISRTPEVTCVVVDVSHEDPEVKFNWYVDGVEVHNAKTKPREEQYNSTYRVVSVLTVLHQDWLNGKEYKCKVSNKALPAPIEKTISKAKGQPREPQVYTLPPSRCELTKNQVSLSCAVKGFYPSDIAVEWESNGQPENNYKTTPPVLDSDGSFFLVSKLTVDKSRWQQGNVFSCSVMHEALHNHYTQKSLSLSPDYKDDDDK
The experiment can be described thus: BLI (Octet RED384), 37 C; biotinylated CD3εδ on streptavidin sensor, one-arm antibody in solution for 120 s (0-1000 nM used, the concentration shown is not given). On the procedure: Using an Octet RED 384 (ForteBio), a streptavidin sensor (ForteBio) was reacted with CD3εδ prepared at 0.2 μM in ACES at 37° C. for 300 seconds. […] Response values were extracted every three seconds, and graphs were depicted using Microsoft Excel 2013 (Microsoft).
On the technique in general: Biolayer interferometry detects binding as a change in optical thickness at a sensor tip.

Residue numbers refer to the chain shown, from its start.

B1: CE115HA000 one arm (CE115HA000-pE22Hh/GLS3000-k0//Kn010) (antibody, human IgG1, kappa, L234A L235A, N297A)
heavy: QVQLVESGGGVVQPGRSLRLSCAASGFTFSNAWMHWVRQAPGKGLEWVAQIKAKSNNYATYYAESVKGRFTISRDDSKNSLYLQMNSLKTEDTAVYYCRYVHYGAYYGVDAWGQGTTVTVSSASTKGPSVFPLAPSSKSTSGGTAALGCLVKDYFPEPVTVSWNSGALTSGVHTFPAVLQSSGLYSLSSVVTVPSSSLGTQTYICNVNHKPSNTKVDKKVEPKSCDKTHTCPPCPAPEAAGGPSVFLFPPKPKDTLMISRTPEVTCVVVDVSHEDPEVKFNWYVDGVEVHNAKTKPREEQYASTYRVVSVLTVLHQDWLNGKEYKCKVSNKALPAPIEKTISKAKGQPREPQVYTLPPSRCELTKNQVSLSCAVKGFYPSDIAVEWESNGQPENNYKTTPPVLDSDGSFFLVSKLTVDKSRWQQGNVFSCSVMHEALHNHYTQKSLSLSPDYKDDDDK
light: DIVMTQSPLSLPVTPGEPASISCRSSQSLVHSNRNTYLHWYQQKPGQAPRLLIYKVSNRFSGVPDRFSGSGSGTDFTLKISRVEAEDVGVYYCGQGTQVPYTFGQGTKLEIKRTVAAPSVFIFPPSDEQLKSGTASVVCLLNNFYPREAKVQWKVDNALQSGNSQESVTEQDSKDSTYSLSSTLTLSKADYEKHKVYACEVTHQGLSSPVTKSFNRGEC
chain: not shown
notes: also called one-arm antibody CE115HA000
Consider B1, for which the binding result is “binds”.

B2: CE115HA056 one arm (CE115HA056-pE22Hh/GLS3000-k0//Kn010) (antibody, human IgG1, kappa, L234A L235A, N297A)
heavy: B1 heavy with V101A
light: B1 light
chain: not shown
notes: One-arm format; also called one-arm antibody CE115HA056
Regarding B2, the binding result is reported as “binds”.
